From the emibetuzumab library of Makowski et al. (2022)

B1: VH:VL chains; a variant is named by its letters at X, in order (parent)
chain 1: QVQLVQSGAEVKKPGASVKVSCKASGYTFTDYXMHWVRQAPGQGLEWMGXVNPNXXXTTYNQKFEGRVTMTTDTSTSTAYMELRSLRSDDTAVYYCARXNXLDXWGQGTTVTVSS
chain 2: DIQMTQSPSSLSASVGDRVTITCSVSSSVSSIYLHWYQQKPGKAPKLLIYSTSNLASGVPSRFSGSGSGTDFTLTISSLQPEDFATYYCQVYSGYPLTFGGGTKVEIK

Variants of: B1
Assay: yeast display scFab, FACS + sequencing
In short: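 For the non-specific binding call, a heavy-chain CDR mutant scFab library on the yeast surface was FACS-sorted and samples from two replicates were deep sequenced. Cells were labelled with anti-Myc and either biotinylated ovalbumin (260 μg/mL in PBSB, 3 h, room temperature) or soluble membrane proteins (130 μg/mL, 20 min on ice), with gates on the top 25% and bottom 10% of binders. With membrane protein and ovalbumin samples pooled, a sequence in ≥3 of 4 positive samples and no negatives was scored positive, and the converse rule scored negatives.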

Variant | non-specific binding call
SAGRGYGD | binds
DAGRGDGF | no binding
DAGRGDGY | no binding
YARETAGV | binds
YAGRSFGS | binds
AARADSLS | no binding
FARAGDWV | binds
AAKEGALV | no binding
AARADSWV | no binding
YAGKTAWS | binds
FAGRSDWV chain 1 R67H | no binding
AARADDWV | no binding
AARADDWD | no binding
YAGRGVGD | binds
AARADDSA | no binding
AARADDSV | no binding
AAKRGSWV | no binding
VAGTGSSA | no binding
VAGTGSSV | no binding
VAGTGSSD | no binding
VAKKNASF | no binding
VAGTGDAA | no binding
SAREGDWV | no binding

Variant | non-specific binding call
DAKEGSLD | no binding
VAGTGDLY | no binding
VAGTGDLA | no binding
DAKENDVA | no binding
DAKENDVF | no binding
YAGKNAVV | no binding
YAGRGDWF | no binding
YAGGTSSD | no binding
AARETVGA | binds
FAGRGALD | binds
VAREDDLS | no binding
VAKADDWF | no binding
FAGRGSSD | binds
YAGRGDVS | no binding
YAGRGDVF | no binding
YAGRGDVD | no binding
YAGRGDVY | no binding
YARGADGS | no binding
FAKAGFVA | binds
VAGRGSAA | binds
YAKGDYSV | no binding
YAKADYSS | binds
FARETFGV | binds

Variant | non-specific binding call
DAGGGYGV | no binding
FAGRAAWA | binds
YAGRGDGA | no binding
YAGKSAGD | no binding
YARAGYAV | binds
YAKRDAGD | no binding
DARADSLV | no binding
SAREGSSA | no binding
DAKEGDVV | no binding
VAGTGSAD | no binding
YAGRAAWD | binds
YAGRADVV | no binding
YARADDVF | no binding
YARADDVA | no binding
DAGTGSGA | no binding
VAGTGAVV | no binding
YAGKDDWV | no binding
DARADSGV | no binding
VAGTSDGA | no binding
DAGKGSVD | no binding
DAKEGDGV | no binding
AARADDVD | no binding
AARADDVY | no binding

Variant | non-specific binding call
AARADDVA | no binding
DAKENAGD | no binding
YAKGDDAS | no binding
YARADDGD | no binding
YARADDGS | no binding
YARADSLD | no binding
VARAADAD | no binding
FAGGGDVY | no binding
AARADAGA | no binding
VAGKGAGD | no binding
FAGGGFAV | binds
VAKADALD | no binding
VAGTGFWV | binds
DAKRDSAS | no binding
YAREGSGA | binds
VAKENAVA | no binding
DAGGGDVV | no binding
DAGGGDVA | no binding
YAGGGDWA | no binding
DAGTGSWD | no binding
VAREGDLA | no binding
FAGRGVGD | binds
FAGRDVGV | binds

Variant | non-specific binding call
VAGTGASD | no binding
YAREAALS | binds
YAGTGFVD | binds
SAGRGFGF | binds
AARADSGY | no binding
AARADSGD | no binding
DAGTAFSS | binds
AARADSSA | no binding
FARENFLA chain 1 V51A | binds
YAGTGAVA | no binding
FARAAALD | binds
SAGRGDGS | no binding
AARADDAV | no binding
AARADDAA | no binding
VAGRGVGD | binds
DAGGGDWD | no binding
DAGGGDWV | no binding
YARADSSV | no binding
YARADSSD | no binding
DAKEGDLV | no binding
